{
  "source": "patent US20070128190A1",
  "about": "(GLENMARK PHARMACEUTICALS S A, published 2007)",
  "key": {"[1]": {"molecular_target": "rat α2β1 integrin on rat blood cells (rat, UniProt A0A0G2K470 27-1178; P49134 21-798)", "sequence (chain, as listed by the source, chain 1 of 2)": "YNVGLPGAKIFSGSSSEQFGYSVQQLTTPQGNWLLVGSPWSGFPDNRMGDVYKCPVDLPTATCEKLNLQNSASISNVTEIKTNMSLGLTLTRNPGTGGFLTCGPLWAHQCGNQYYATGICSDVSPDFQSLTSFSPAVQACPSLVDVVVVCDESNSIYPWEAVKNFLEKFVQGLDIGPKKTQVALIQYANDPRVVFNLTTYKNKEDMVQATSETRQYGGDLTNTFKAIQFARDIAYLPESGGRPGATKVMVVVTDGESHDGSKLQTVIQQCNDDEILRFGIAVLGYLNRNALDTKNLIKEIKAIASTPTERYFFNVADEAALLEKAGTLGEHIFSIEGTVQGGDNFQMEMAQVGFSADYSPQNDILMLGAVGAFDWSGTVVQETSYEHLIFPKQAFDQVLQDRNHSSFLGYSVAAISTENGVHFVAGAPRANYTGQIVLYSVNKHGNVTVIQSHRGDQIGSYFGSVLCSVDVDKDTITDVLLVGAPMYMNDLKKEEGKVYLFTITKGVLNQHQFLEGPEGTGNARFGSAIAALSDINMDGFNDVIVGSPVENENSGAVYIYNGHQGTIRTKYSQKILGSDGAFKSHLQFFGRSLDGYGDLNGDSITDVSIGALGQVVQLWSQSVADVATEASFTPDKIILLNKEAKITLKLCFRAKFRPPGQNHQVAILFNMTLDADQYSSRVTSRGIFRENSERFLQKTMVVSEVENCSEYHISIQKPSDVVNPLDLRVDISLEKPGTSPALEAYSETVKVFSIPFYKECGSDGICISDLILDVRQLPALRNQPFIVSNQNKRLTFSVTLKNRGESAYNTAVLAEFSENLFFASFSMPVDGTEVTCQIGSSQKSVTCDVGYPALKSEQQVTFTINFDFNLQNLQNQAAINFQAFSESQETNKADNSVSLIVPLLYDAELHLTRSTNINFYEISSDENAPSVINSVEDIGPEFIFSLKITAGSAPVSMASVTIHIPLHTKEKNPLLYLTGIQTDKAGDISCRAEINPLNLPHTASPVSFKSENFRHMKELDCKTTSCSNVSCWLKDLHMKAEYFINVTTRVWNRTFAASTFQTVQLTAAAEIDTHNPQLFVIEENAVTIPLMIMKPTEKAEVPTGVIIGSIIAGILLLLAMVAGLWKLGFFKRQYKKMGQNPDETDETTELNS", "sequence (P49134 21-798, chain 2 of 2)": "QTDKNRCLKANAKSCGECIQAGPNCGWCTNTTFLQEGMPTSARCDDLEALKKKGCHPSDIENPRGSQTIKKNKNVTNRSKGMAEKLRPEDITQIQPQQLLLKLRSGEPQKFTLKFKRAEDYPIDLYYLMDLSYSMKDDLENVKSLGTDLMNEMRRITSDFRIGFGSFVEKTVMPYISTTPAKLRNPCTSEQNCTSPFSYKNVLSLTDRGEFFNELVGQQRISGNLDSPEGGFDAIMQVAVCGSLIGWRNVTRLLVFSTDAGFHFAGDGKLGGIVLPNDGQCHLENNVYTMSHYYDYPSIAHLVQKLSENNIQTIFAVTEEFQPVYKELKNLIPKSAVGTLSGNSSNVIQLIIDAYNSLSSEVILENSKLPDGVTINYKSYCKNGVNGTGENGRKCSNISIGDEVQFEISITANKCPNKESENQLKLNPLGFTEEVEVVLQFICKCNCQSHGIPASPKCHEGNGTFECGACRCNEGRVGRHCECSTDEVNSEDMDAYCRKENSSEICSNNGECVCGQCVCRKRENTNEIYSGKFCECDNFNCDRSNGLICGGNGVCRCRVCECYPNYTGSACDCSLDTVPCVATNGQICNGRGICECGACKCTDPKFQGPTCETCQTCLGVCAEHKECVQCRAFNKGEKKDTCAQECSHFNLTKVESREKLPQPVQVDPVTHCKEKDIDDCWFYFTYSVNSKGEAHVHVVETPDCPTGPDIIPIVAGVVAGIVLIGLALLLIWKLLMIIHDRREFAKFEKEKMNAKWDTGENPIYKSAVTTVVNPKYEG", "assay": "cell-based or functional assay"}, "[2]": {"molecular_target": "human α2 integrin with endogenous hamster β1 on CHO cells (human; hamster)", "sequence (P17301 30-1181 E534K)": "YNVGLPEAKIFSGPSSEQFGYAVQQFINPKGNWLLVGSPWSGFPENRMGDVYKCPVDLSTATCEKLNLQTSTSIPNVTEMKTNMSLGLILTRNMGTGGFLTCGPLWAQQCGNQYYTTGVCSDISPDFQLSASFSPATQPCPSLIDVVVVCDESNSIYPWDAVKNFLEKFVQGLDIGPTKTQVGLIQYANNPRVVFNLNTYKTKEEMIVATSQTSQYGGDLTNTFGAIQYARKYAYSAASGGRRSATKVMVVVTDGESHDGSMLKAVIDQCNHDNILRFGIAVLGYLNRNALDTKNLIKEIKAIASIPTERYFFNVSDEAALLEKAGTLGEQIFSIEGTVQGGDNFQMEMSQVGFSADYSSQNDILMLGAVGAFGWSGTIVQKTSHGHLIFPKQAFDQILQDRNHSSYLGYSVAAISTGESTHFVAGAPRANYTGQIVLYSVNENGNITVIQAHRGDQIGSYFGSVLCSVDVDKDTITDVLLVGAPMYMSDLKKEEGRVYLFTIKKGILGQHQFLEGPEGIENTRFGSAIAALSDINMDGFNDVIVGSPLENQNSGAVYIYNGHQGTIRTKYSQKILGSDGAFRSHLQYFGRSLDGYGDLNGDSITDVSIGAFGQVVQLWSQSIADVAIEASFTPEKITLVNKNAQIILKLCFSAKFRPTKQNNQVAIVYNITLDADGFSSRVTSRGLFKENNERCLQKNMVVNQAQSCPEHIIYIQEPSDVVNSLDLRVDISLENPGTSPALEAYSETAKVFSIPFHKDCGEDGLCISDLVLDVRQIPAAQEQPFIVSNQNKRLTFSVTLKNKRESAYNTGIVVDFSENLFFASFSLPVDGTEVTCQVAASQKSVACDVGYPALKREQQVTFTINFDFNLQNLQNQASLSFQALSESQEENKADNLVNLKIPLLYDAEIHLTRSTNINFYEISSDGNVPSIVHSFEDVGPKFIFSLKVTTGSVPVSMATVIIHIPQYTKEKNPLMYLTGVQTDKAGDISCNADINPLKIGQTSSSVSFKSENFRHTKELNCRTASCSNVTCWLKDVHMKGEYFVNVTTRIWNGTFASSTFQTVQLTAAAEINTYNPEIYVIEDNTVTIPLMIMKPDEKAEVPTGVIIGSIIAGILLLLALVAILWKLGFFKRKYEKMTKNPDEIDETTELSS", "assay": "cell-based or functional assay"}, "[3]": {"molecular_target": "T1, human platelet α2β1 integrin (immobilized on microtiter plates) (human, UniProt P17301 30-1181; P05556 21-798)", "T1 construct": "plates custom-coated with human platelet α2β1 by GTI Inc; also called immobilized α2β1 integrin; α2β1-coated plates", "T1 sequence (P17301 30-1181 E534K limits assumed, chain 1 of 2)": "as the sequence (P17301 30-1181 E534K) above", "T1 sequence (P05556 21-798 limits assumed, chain 2 of 2)": "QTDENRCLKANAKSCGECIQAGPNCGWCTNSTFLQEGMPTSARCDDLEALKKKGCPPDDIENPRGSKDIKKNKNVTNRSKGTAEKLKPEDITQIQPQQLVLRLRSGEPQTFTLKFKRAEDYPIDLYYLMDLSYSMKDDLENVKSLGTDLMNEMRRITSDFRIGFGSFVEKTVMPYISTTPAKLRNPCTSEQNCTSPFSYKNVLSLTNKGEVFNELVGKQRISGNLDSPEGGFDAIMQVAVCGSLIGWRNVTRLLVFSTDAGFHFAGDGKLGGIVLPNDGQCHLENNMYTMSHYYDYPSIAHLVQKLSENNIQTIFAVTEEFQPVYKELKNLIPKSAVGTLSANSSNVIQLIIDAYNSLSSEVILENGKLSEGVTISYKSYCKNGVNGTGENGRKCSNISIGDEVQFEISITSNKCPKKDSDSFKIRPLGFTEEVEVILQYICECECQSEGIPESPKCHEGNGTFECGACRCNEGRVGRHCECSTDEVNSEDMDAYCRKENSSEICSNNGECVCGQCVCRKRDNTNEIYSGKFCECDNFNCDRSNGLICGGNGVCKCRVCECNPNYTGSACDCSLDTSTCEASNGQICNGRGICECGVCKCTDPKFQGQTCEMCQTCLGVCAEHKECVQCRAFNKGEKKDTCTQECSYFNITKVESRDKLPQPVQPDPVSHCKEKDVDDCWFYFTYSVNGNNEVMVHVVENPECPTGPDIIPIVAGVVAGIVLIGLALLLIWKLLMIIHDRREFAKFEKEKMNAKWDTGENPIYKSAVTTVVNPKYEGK", "assay": "competition with Eu-TMC-2206 on human platelet α2β1-coated plate"}, "[4]": {"molecular_target": "T1, human platelet α2β1 integrin …", "assay": "competition with Eu-TMC-2206 on human platelet α2β1-coated plate", "remark": "listed apart in the source"}},
  "note": "Where two headings read alike, the source gives them in different places.",
  "data": [
    {"binder": "TMC-2206 (antibody, mouse IgG1, V domains shown, murine IgG1/κ secreted by hybridoma BHA2.1; labelled with Eu-N1-ITC where used as tracer; also called BHA2.1) VH: QVQLKESGPGLVAPSQSLSITCTVSGFSLTNYGIHWVRQPPGKGLEWLGVIWARGFTNYNSALMSRLIITKDNSQSQVFLKMNSLQPDDSATYFCARANDGVYYAMDYWGQGTSVTVSS VL: QFVLTQSPAFLSASPGEKVTMTCSANSSVNYIHWYQQKSGTSPKKWIYDTSKLASGVPVRFSGSGSGTSYSLTISSMETEDAATYYCQQWTTNPLTFGAGTRVELK", "values": [
      {"measurement": "EC50, inhibiting binding of rat platelets to rat collagen Type I", "setting": "[1]", "value": 6.3, "unit": "nM"},
      {"measurement": "fold shift, rat compared to human platelets", "setting": "[1]", "value": "~5", "unit": "fold"},
      {"measurement": "EC50, inhibition of adhesion of CHO-α2 cells to collagen Type I", "setting": "[2]", "value": 1.2, "unit": "nM"},
      {"measurement": "EC50, inhibition of cell adhesion to collagen", "setting": "[2]", "value": 1.5, "unit": "nM"},
      {"measurement": "Ki", "setting": "[3]", "value": 0.28, "unit": "nM"},
      {"measurement": "Ki", "setting": "[4]", "value": 0.22, "unit": "nM"}
    ]}
  ]
}
